# Laboratory results from publication PMC2566886 (Nucleic Acids Research, 2008).
# B1: Xenopus Nudt16 protein (X29) (enzyme, Xenopus laevis)
# chain: MAESRSPDRGAKEDKPRPRNISREESLQLEGYKHACHALLHAPSQAKLFDRVPIRRVLLMMMRFDGRLGFPGGFVDTRDISLEEGLKRELEEELGPALATVEVTEDDYRSSQVREHPQKCVTHFYIKELKLEEIERIEAEAVNAKDHGLEVMGLIRVPLYTLRDRVGGLPAFLCNNFIGNSKSQLLYALRSLKLLREDQIQEVLKASHRLQY
# Target: the molecule itself
# Test: cross-linking
protein,measurement,value
B1,stoichiometry N,≥ 2
